Test results reported in PMC5557964.

Biological target: citrullinated fibronectin N-terminal 30 kDa fragment (treated with PAD2 or PAD4)
Assay: ELISA; FN N-terminal 30 kDa fragment coated o/n on 96-well DNA-BIND plates (3 µg/cm^3, +4 °C), blocked with BSA, citrullinated on the plate by PAD2 or PAD4 (2.4 U/ml, o/n, +37 °C) or left as control; integrin αVβ3 5 µg/ml for 1 h at room temperature in Delfia assay buffer; detected with anti-αV antibody L230 and Eu-labelled anti-mouse antibody, time-resolved fluorescence; BSA wells as background

In the case of “recombinant integrin αVβ3 ectodomain (from UniProt P06756 31-992; P05106 27-718) (receptor)”, the reduction of binding against the control FN fragment is reported as > 50%.
